How the values were obtained:
Details in all cases: 20 mM Hepes pH 7.5, 100 mM KAc, 200 mM KCl, 3 mM MgCl2, 1 mM TCEP; 37 C, 20 min; RNA folded in 20 mM Hepes pH 7.5, 150 mM KCl, 5 mM MgCl2
[1] = tested on: 40S ribosomal subunit (HeLa or RRL, used interchangeably) (Homo sapiens or rabbit); experiment: EMSA
[2] = tested on: 40S ribosomal subunit (RRL) (rabbit (reticulocyte lysate)); experiment: EMSA
[3] = tested on: 80S ribosome; experiment: EMSA
[4] = tested on: 40S ribosomal subunit (HeLa) (Homo sapiens (HeLa)); experiment: EMSA
[5] = tested on: 40S ribosomal subunit (HeLa or RRL, used interchangeably) (Homo sapiens or rabbit); experiment: filter binding
[6] = tested on: 40S ribosomal subunit (HeLa or RRL, used interchangeably);eIF3 (preparation not specified) (Homo sapiens or rabbit;Homo sapiens?); experiment: filter binding
[7] = tested on: eIF3 (preparation not specified); experiment: filter binding

Substance: AGGUUGGGGUAAACACUCCGGCCUCUUAAGCCAUUUCCUGUUUUUUUUUUUUUUUUUUUUUUUUUUUUCUUUUUUUUUUUCUUUCCUUUCCUUCUUUUUUUCCUUUCUUUUUCCCUUCUUUAAUGGUGGCUCCAUCUUAGCCCUAGUCACGGCUAGCUGUGAAAGGUCCGUGAGCCGCAUGACUGCAGAGAGUGCUGAUACUGGCCUCUCUGCAGAUCAUGU [HCV 3'UTR genotype 1a]
- Kd [1]: 6.7 nM

Substance: HCV 3'UTR
- Kd [2]: 5.4 nM
- Kd [3]: 11.8 nM
- Kd [4]: 1.8 nM
- Kd [5]: 1.8 nM
- Kd [6]: 1 nM
- Kd [7]: 8.9 nM

Substance: HCV 3'UTR genotype 1b
- Kd [1]: 4.7 nM

Substance: HCV 3'UTR genotype 2a
- Kd [1]: 3.5 nM

Substance: HCV 3'UTR genotype 3a
- Kd [1]: 3.7 nM

Substance: UAGACGAGCGGCCCUAAACAACACUCCAUAACAUUUUUUUUUUUUUUUUUUUUUUUUUUUUUUUUUUUUUUUUUUUUUUUUUUUUUUUUUUUUUUUCUUUCUUAUCUGUCUAUCCCUUAGACUCCUUCUUUGGUGGCUCCAUCUUAGCCCUAGUCACGGCUAGCUGUGAAAGGUCCGUGAGCCGCAUGACUGCAGAGAGUGCUGAUACUGGCCUCUCUGCAGUUCAUGU [HCV 3'UTR genotype 6b]
- Kd [1]: 6.7 nM

From publication PMC3763534
